Laboratory results published in US20240287172A1 (SCIRHOM, published 2024).

T1: hiR2-FL-P533-T7 (deletion of P533) (human, UniProt Q6PJF5 1-856)
T1 construct: single residue deletion, not a substitution; on MEF-DKO cells
T1 sequence: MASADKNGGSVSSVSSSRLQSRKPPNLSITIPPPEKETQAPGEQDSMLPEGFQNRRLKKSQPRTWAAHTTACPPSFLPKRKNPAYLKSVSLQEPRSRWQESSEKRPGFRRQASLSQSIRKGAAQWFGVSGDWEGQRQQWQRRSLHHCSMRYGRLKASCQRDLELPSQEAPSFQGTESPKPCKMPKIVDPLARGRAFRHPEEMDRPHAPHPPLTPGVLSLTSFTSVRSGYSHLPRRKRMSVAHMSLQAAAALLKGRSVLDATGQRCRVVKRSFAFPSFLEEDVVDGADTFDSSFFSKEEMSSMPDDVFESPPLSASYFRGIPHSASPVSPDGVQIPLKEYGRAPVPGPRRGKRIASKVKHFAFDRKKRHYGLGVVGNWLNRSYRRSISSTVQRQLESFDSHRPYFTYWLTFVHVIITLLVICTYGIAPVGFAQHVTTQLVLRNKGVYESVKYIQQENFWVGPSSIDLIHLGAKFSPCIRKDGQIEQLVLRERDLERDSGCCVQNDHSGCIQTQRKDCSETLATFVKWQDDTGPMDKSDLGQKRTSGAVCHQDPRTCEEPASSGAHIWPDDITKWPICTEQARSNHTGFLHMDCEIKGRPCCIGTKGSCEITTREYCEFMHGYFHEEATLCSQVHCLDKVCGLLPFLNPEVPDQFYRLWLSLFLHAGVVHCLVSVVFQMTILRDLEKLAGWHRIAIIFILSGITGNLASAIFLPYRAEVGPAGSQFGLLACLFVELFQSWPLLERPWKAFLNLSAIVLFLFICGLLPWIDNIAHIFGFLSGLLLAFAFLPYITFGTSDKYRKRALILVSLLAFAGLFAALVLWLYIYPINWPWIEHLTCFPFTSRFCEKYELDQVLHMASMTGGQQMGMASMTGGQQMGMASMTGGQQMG

T2: hiR2-FL-R543Q-T7 (human, UniProt Q6PJF5 1-856)
T2 sequence: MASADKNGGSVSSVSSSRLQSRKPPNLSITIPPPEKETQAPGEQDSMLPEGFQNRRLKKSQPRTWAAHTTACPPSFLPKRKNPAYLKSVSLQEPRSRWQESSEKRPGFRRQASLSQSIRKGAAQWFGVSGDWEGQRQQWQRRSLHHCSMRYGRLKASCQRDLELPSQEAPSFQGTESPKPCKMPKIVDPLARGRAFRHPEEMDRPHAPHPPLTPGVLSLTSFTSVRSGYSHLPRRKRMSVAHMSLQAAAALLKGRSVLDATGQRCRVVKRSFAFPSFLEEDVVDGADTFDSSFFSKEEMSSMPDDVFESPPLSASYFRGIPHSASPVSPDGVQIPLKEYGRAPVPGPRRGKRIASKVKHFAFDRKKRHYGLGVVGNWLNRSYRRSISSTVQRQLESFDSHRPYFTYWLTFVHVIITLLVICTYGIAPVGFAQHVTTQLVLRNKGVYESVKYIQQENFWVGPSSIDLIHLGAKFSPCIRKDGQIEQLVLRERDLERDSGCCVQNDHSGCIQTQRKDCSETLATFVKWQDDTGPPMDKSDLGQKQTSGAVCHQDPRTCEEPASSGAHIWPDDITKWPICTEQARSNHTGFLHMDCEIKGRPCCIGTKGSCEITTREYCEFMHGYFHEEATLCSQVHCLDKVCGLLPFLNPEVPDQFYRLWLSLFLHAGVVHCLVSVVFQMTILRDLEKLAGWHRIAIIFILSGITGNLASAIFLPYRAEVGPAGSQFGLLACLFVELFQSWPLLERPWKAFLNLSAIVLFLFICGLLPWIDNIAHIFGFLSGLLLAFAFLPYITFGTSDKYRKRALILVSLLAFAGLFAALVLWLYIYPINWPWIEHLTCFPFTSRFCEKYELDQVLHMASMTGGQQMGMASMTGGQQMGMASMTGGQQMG


Assays:
[1] = target: T1, hiR2-FL-P533-T7 (deletion of P533); assay: FACS, MEF-DKO cells, 3 µg/ml
Description: (§1) In brief, immortalized MEF-DKO-hiR2-FL-WT-T7 cells, MEF-DKO-miR2-FL-WT-T7 cells and MEF-DKO-hiR2-FL-R441K-T7, MEF-DKO-hiR2-FL-K443R-T7, MEF-DKO-hiR2-FL-V459I-T7, MEF-DKO-hiR2-FL-G481Q-T7, MEF-DKO-hiR2-FL-L488R-T7, MEF-DKO-hiR2-FL-L493I-T7, MEF-DKO-hiR2-FL-D496T-T7, MEF-DKO-hiR2-FL-H505R-T7, MEF-DKO-hiR2-FL-Q512L-T7, MEF-DKO-hiR2-FL- R513K-T7, MEF-DKO-hiR2-FL-D528N-T7, MEF-DKO-hiR2-FL-P533-T7, MEF-DKO-hiR2-FL-M534S-T7, MEF-DKO-hiR2-FL-G540S-T7, MEF-DKO-hiR2-FL-R543Q-T7, MEF-DKO-hiR2-FL-T544P-T7, MEF-DKO-hiR2-FL-G546A-T7, MEF-DKO-hiR2-FL-A547V-T7, MEF-DKO-hiR2-FL-R582Q-T7, MEF-DKO-hiR2-FL-F588L-T7, MEF-DKO-hiR2-FL-M591I-T7, MEF-DKO-hiR2-FL-E594K-T7, MEF-DKO-hiR2-FL-E626D-T7, MEF-DKO-hiR2-FL-L657I-T7, and MEF-DKO-hiR2-FL-H835Y-T7 cells were harvested with 10 mM EDTA in PBS, washed and resuspended in FACS buffer (PBS, 3% FBS, 0.05% sodium azide), and seeded in Nunc U-bottom 96-well plates (Thermo Fisher Scientific, USA) at approximately 3×10⁵ cells per well.
(§2) To pellet cells and remove supernatants, the plates were centrifuged at 1,500 rpm and 4° C. for 3 minutes. For primary staining, cells were resuspended in 100 μl per well of either FACS buffer alone (controls) or the purified antibodies 3, 5, 16, 22, 34, 42, 43, 44, 48, and 50 of the invention at 3 μg/ml FACS buffer and incubated on ice for 1 hour. Afterwards, plates were centrifuged at 1,500 rpm and 4° C. for 3 minutes and washed twice with 200 μl per well of FACS buffer. For secondary staining, cells were spun down and resuspended in 100 μl per well of PE-conjugated goat anti-mouse IgG F(ab′)2 detection fragment (Dianova, Germany) diluted 1:100 in FACS buffer. Protected from light, the cell suspensions were incubated on ice for 1 hour. Plates were then centrifuged at 1,500 rpm and 4° C. for 3 minutes and washed three times with 200 μl per well of FACS buffer. Finally, cells were resuspended in 150 μl per well of FACS buffer and analyzed using a BD Accuri™ C6 Plus flow cytometer (Becton Dickinson, Germany).

[2] = target: T2, hiR2-FL-R543Q-T7; assay: FACS, MEF-DKO cells, 3 µg/ml
Description: as §1, §2

| Binder | loss of binding vs wild type [1] [%] | loss of binding vs wild type [2] [%] |
| --- | --- | --- |
| antibody 16 (antibody, V domains shown, mouse IgG, kappa light chain; also called clone #16; purified antibody 16) VH: QVTLKESGPGILQPSQTLSLTCSFSGFSLSTFALGVGWIRQPSGRGLEWLAHIWWDDDKYYNPALKSRLTISKDTSKNHVFLKIANVDTADTATYYCARITTYYYGMDYWGQGTSVTVSS VL: DIVLSQSPATLSVTPGDSVSLFCRASQSIGNHLHWYQQESHASPRLLIKYASQSISGIPSRFSGSGSGTDFTLSINSVETEDFGMYFCQQSYNWPLTFGAGTKLELK | ≥ 95 |  |
| antibody 3 (antibody, V domains shown, mouse IgG, kappa light chain; also called clone #3; purified antibody 3) VH: QVTLKESGPGILQPSQTLSLTCSFSGFSLTTFAMGIGWVRQPSGKGLEWLAHIWWDGEKYNNPVLKSRLTISKDTSKNQVFLRIANVDTPDTATYYCARISSIYYIIDNWGQGTSVTVSS VL: DIVLTQSPATLSVTPGHSVSLSCRASQSISNNLHWYQKKSHESPRLLIKYVSQSISGIPSRFSGSGSGTDFTLSINSVETEDFGMYFCQQSYNWPLTFGAGTKLELK | ≥ 95 | ≥ 60 |
| antibody 5 (antibody, V domains shown, mouse IgG, kappa light chain; also called clone #5; purified antibody 5) VH: QVTLKESGPGILQPSQTLSLTCSFSGFSLSTFGMGVGWIRQPSGKGLEWLAHIWWDDEKYYNSALKSRLTISKATSKNQAFLKIANVDTADTATYYCARISNYGSNYWYFNVWGTGTTVTVSS VL: QVVLTQSPALMSASPGEKVTMTCSAGSSVSCMYWYQQKPGSSPRVLIYDTSNLASGVPARFTGSGSGTSYSLTISRMEAEDAASYYCQQWNSYPLTFGAGTKLELK | ≥ 95 | ≥ 95 |
| antibody 44 (antibody, V domains shown, mouse IgG, kappa light chain; also called clone #44; purified antibody 44) VH: QVTLKESGPGILQPSQTLSLTCSFSGFSLSTFGMGVGWIRQPSEKGLEWLAHIWWDDDKYYNPALKSRLTISKDTSKNQIFLKITNVDTAETATYYCSRIGNYGSNYWYFDVWGTGTTVTVSS VL: QIVLTQSPAVMSASPGEKVTMTCTASSSVYYMYWYQQTPGSSPRLLIYDTSNLASGVPVRFSGSGSGTSYSLTISRMEAEDAATYYCQQWNTYPLTFGAGTKLELK | ≥ 95 | ≥ 60 |
| antibody 42 (antibody, V domains shown, mouse IgG, kappa light chain; also called clone #42; purified antibody 42) VH: QVTLKESGPGILQPSQTLSLTCSLSGFSLSTFGRGVGWIRQPSGKGLEWLAHIWWDDEKYYNPALKSRLTISKDTSKNQVFLRIANVDTADTATYYCARIQNYGSNYWYFDVWGTGTTVTVSS VL: LIVLTQSPAIMSASPGEKVTMTCGATSRISYMFWYQQKPGSSPRVLIYDTSNLASGVPVRFSGSGSGTSYSLTISRVEAEDVATYYCQQWNSYPLTFGAGTKLELK | ≥ 95 | ≥ 95 |
| antibody 43 (antibody, V domains shown, mouse IgG, kappa light chain; also called clone #43; purified antibody 43) VH: QVALKESGPGILQPSQTLSLTCSFSGFSLSTFGMGVGWIRQSSGKGLEWLANIWWDDDKYYNPALKSRLTISKDASKNQAFLKIANVDTADTATYYCARIGNYGSNYWYFDVWGTGTTVTVSS VL: QIVLTQSPAIMSASPGERVTMTCSANSRISYMYWYQQKPGSSPRLLIYDTSNLASGVPVRFSGSGSGTSYSLTISRMEAEDAATYNCQQWSSYPLTFGAGTKLELK | ≥ 95 | ≥ 95 |
| antibody 22 (antibody, V domains shown, mouse IgG, kappa light chain; also called clone #22; purified antibody 22) VH: QVTLKESGPGILQPSQTLSLTCSFSGFSLSTFGMGVGWIRQPSGKGLEWLAHIWWDDEKYYNSALKSRLTISKATSKNQVFLKIANVDTADTATYYCARISNYGSNYWYFNVWGTGTTVTVSS VL: QVVLTQSPALMSASPGEKVTMTCSAGSSVSYMYWYQQKPGSSPRVLIYDTSNLASGVPARFTGSGSGTSYSLTISRMEAEDAATYYCQQWNSYPLTFGAGTKLELK | ≥ 95 | ≥ 60 |
| antibody 50 (antibody, V domains shown, mouse IgG, kappa light chain; also called clone #50; purified antibody 50) VH: QVQLQQSGAELVRPGASVKVSCKASGYAFSNYLIEWVKQRPGQGLEWIGVINPGSGFTKYNEKFKGKATLTADKSSSTAYMQLSSLTSEDSAVYFCARGLYRAMDYWGQGTSVTVSS VL: DIQMTQSPASQSASLGESVTITCLASQTIGTWLAWYQQKPGKSPQLLIYAAASLADGVPSRFSGGGSGTKFSFKISSLQAEDFVNYYCQQIYSTPYTFGGGTKLEIK |  | ≥ 30 |
| antibody 34 (antibody, V domains shown, mouse IgG, kappa light chain; also called clone #34; purified antibody 34) VH: QVTLKESGPGILQPSQTLSLTCSFSGFSLSTFSLGVGWIRQSSGKGLEWLAHIWWDDEKYYNPALKSRLTISKDTSKNQVFLKIANVDAADTATYYCARAYYSKSYYALDYWGQGTSVTVSS VL: DIQMTQSPSSLSASLGERVSLTCRASQEISGYLSWLQQKPDGTIKRLIYAASTLDSGVPKRFSGSRSGSDYSLAISSLESEDFADYYCLQYANFPFTFGSGTKLEIK | ≥ 95 | ≥ 95 |
